Laboratory results reported in the supplement of paper PMC10724198.
± gives the standard deviation of the averaged measurements.

These sequences were tested on Saccharomyces cerevisiae (assay: protein stability index of tFT-peptide fusion (C-terminal peptide) (PSI (0-1 scale)); higher = more stable (slower turnover)). Details: genetic background: wild type; temperature: 30 C.
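Note: PSI is a weighted mean of sequencing reads over stability bins, variants kept only with over 10 reads, mCherry proximal and sfGFP distal, peptide attached via GGGS linker.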

| Sequence | protein stability index |
| --- | --- |
| TKRQKQKKKNKE | 0.696 ± 0.071 |
| TKTIKPNKKATV | 0.655 ± 0.03 |
| TLFLFVSSFCMG | 0.47 ± 0.067 |
| TLFQGHQLFKSR | 0.737 ± 0.0068 |
| TLLTIALLTGNL | 0.606 ± 0.063 |
| TLNSSPFTTPTI | 0.717 ± 0.074 |
| TLPFLYILDFFF | 0.589 ± 0.0081 |
| TLPPSPTPPLYP | 0.773 ± 0.031 |
| TLPSHPRLLSLH | 0.6965 ± 0.0013 |
| TLPSPPPRPPPA | 0.702 ± 0.061 |
| TLQRARTGSTPK | 0.684 ± 0.055 |
| TLRVNAMFVEAM | 0.63 ± 0.014 |
| TLSSSPRPLPVP | 0.692 ± 0.051 |
| TLTVCVNQGMTM | 0.668 ± 0.024 |
| TLTVRASLHLEP | 0.636 ± 0.025 |
| TLVPPPSPPPSP | 0.636 ± 0.065 |
| TLWLSGGGGMVI | 0.731 ± 0.04 |
| TNATENKNRHPN | 0.741 ± 0.068 |
| TNGHIVRLGRRV | 0.63 ± 0.011 |
| TNKKQIEPSKIR | 0.763 ± 0.086 |
| TNKNNKKKKEKI | 0.743 ± 0.049 |
| TNQRKKTVAGEK | 0.672 ± 0.025 |
| TNSQTKKKINKI | 0.661 ± 0.038 |

| Sequence | protein stability index |
| --- | --- |
| TNYIPRQSKKGG | 0.71 ± 0.022 |
| TNYKIKDDRLHR | 0.699 ± 0.014 |
| TPCTFPPLIRSP | 0.672 ± 0.039 |
| TPFLPLPSRPRR | 0.726 ± 0.0078 |
| TPHPPAAPPPPL | 0.766 ± 0.082 |
| TPLGLSVSSPPT | 0.661 ± 0.14 |
| TPLPLRFRCPYS | 0.639 ± 0.04 |
| TPLPPSALPLPL | 0.724 ± 0.066 |
| TPPSPLPPSPPR | 0.728 ± 0.058 |
| TPQTTQIKNEKH | 0.789 ± 0.14 |
| TPRAALVVSPLV | 0.7484 ± 0.0018 |
| TPRYALVRHHPR | 0.695 ± 0.098 |
| TPSCPALRGDAE | 0.661 ± 0.016 |
| TPSLLSPPLSLA | 0.7036 ± 0.0027 |
| TPSNTRPTLHIP | 0.6404 ± 0.0011 |
| TPSSLLLISPPS | 0.703 ± 0.083 |
| TQLNATVSWTEK | 0.665 ± 0.014 |
| TQSAPGIPGAGE | 0.65 ± 0.025 |
| TQVGTLANASGP | 0.671 ± 0.046 |
| TRAGRGGCASQD | 0.701 ± 0.028 |
| TRCGGRWGEGWR | 0.72 ± 0.028 |
| TRCRLRETISRR | 0.651 ± 0.067 |
| TRCSIPSSLSLM | 0.677 ± 0.016 |

| Sequence | protein stability index |
| --- | --- |
| TRGTRGWGSVVG | 0.735 ± 0.018 |
| TRLKKTEKTKER | 0.739 ± 0.025 |
| TRLSRGTRVEYR | 0.651 ± 0.025 |
| TRLTSATHGVCC | 0.6331 ± 0.0053 |
| TRRAISPEGRWL | 0.645 ± 0.014 |
| TRRGDRVGVGSA | 0.589 ± 0.072 |
| TRYKSFWSLASI | 0.703 ± 0.064 |
| TSASLLLSFAVP | 0.6768 ± 0.0022 |
| TSGEIESTSKKK | 0.689 ± 0.055 |
| TSGHSCGRGLLD | 0.64 ± 0.012 |
| TSGLSSAGSRSL | 0.647 ± 0.044 |
| TSGPVSCLCECL | 0.598 ± 0.029 |
| TSKVEVDKGKLE | 0.723 ± 0.051 |
| TSLKGHFGIRLW | 0.6763 ± 0.0021 |
| TSMRRWSGRYGG | 0.743 ± 0.075 |
| TSPLPTLLNDPP | 0.523 ± 0.0081 |
| TSSWGGLVASLR | 0.74 ± 0.04 |
| TSSYFVLFLTSP | 0.635 ± 0.087 |
| TSVSLYWDSNLC | 0.751 ± 0.033 |
| TTGGRGSRVGGR | 0.6975 ± 0.0024 |
| TTQPQVGHHRTS | 0.715 ± 0.021 |
| TTRYKKQNRRKE | 0.74 ± 0.24 |
| TTSRADKEPFRL | 0.675 ± 0.027 |

| Sequence | protein stability index |
| --- | --- |
| TTYYTKPPRPKR | 0.69 ± 0.035 |
| TVACILPLAQSL | 0.706 ± 0.075 |
| TVERRYTGDWGG | 0.726 ± 0.032 |
| TVFDPLGLPALL | 0.617 ± 0.04 |
| TVGGAMSCLGWL | 0.714 ± 0.011 |
| TVSEQWKLLGER | 0.736 ± 0.051 |
| TWMRIRLFRFIP | 0.5744 ± 0.0011 |
| TWVGPIRISNQQ | 0.639 ± 0.01 |
| TYIVVAPTLARL | 0.67 ± 0.095 |
| TYSERADLCAQL | 0.678 ± 0.016 |
| TYTELSFKNCVE | 0.713 ± 0.042 |
| VAASGEVVPLMA | 0.604 ± 0.046 |
| VACCKIRSGKSH | 0.687 ± 0.056 |
| VAGGTCGGRACC | 0.694 ± 0.099 |
| VALLRDSCLGVV | 0.671 ± 0.018 |
| VARGVGGGVWRS | 0.704 ± 0.015 |
| VASVWGVGFVAS | 0.694 ± 0.058 |
| VAVRGGSGDWGR | 0.713 ± 0.023 |
| VAVVSATVGASG | 0.68 ± 0.026 |
| VAVWWVQCAGGV | 0.66131 ± 0.00034 |
| VAWRQSVDLGLL | 0.685 ± 0.047 |
| VAWSACRLSLWG | 0.889 ± 0.016 |
| VAWYALPWCVLI | 0.6211 ± 0.0041 |

| Sequence | protein stability index |
| --- | --- |
| VCAVPSILPPPP | 0.6902 ± 0.0061 |
| VCCSDSLCFVVS | 0.601 ± 0.052 |
| VCCSQWPLGFSV | 0.733 ± 0.068 |
| VCEGFRTWALGG | 0.722 ± 0.03 |
| VCESAGERVMGG | 0.705 ± 0.051 |
| VCGFRVGGYIGV | 0.723 ± 0.064 |
| VCGGGEGGERGG | 0.799 ± 0.057 |
| VCGLGGCGGLGV | 0.731 ± 0.039 |
| VCGSRAVRRTEL | 0.712 ± 0.07 |
| VCSGPKSPATQQ | 0.695 ± 0.048 |
| VCSGSGIGNLFE | 0.7912 ± 0.0019 |
| VCSPLLIYSVGV | 0.624 ± 0.051 |
| VCVDLFGLRASA | 0.631 ± 0.044 |
| VCVVALCLPHLP | 0.583 ± 0.012 |
| VDFVGFGGVEGG | 0.75 ± 0.059 |
| VDHWVCWCGGWG | 0.7734 ± 0.0072 |
| VDLGLYGYTDIW | 0.685 ± 0.035 |
| VDLVSRVVFQDR | 0.7231 ± 0.0015 |
| VDPAPPRRPPRY | 0.694 ± 0.097 |
| VDSYTGGFDLSW | 0.681 ± 0.062 |
| VECLDTKTTCNI | 0.73 ± 0.035 |
| VEEDPSSQLVIF | 0.599 ± 0.01 |
| VEFGIFACFTRP | 0.6687 ± 0.0019 |

| Sequence | protein stability index |
| --- | --- |
| VERDARGESCSR | 0.747 ± 0.18 |
| VFAFLKPTGKLV | 0.597 ± 0.05 |
| VFCGACRLHLCL | 0.69 ± 0.077 |
| VFCGGGRFRCSR | 0.651 ± 0.023 |
| VFDHVGWPFWSY | 0.714 ± 0.041 |
| VFGWAGVGGDCG | 0.674 ± 0.012 |
| VFHCFVSRRRFC | 0.65 ± 0.022 |
| VFHSSTRDSFVS | 0.751 ± 0.066 |
| VFIVARGLSLIV | 0.536 ± 0.014 |
| VFLRGGVLPLRR | 0.691 ± 0.012 |
| VFLRVLLECLDF | 0.5666 ± 0.0036 |
| VFNLSIPLPSFP | 0.707 ± 0.046 |
| VFPARTALFFPQ | 0.726 ± 0.05 |
| VFQFVLGVILGW | 0.5289 ± 0.0035 |
| VFSASCYSNSAR | 0.739 ± 0.032 |
| VFWGGGAVGSVR | 0.69 ± 0.071 |
| VGAAGGVGGSGG | 0.629 ± 0.048 |
| VGACGWRGWCVV | 0.664 ± 0.011 |
| VGAFEGDWGVRH | 0.671 ± 0.099 |
| VGAGLRMRVGEA | 0.669 ± 0.035 |
| VGCRVVPGAGEV | 0.666 ± 0.016 |
| VGEGSGEWKFLD | 0.809 ± 0.06 |
| VGELGVFAPGGK | 0.5 ± 0.1 |

| Sequence | protein stability index |
| --- | --- |
| VGFGFVRSLLVG | 0.6151 ± 0.005 |
| VGGGGAELCVVE | 0.667 ± 0.022 |
| VGGGGECCFLEG | 0.826 ± 0.1 |
| VGGGGRSTGVGK | 0.65 ± 0.044 |
| VGGGKRILVPRS | 0.691 ± 0.12 |
| VGGGLSLGGVWW | 0.691 ± 0.038 |
| VGGGRDLFFFKF | 0.602 ± 0.044 |
| VGGHGGVGGGMG | 0.651 ± 0.026 |
| VGGIVGWFCRGR | 0.698 ± 0.081 |
| VGGLGGVGGGMG | 0.654 ± 0.03 |
| VGGRAAIVRGGW | 0.6853 ± 0.0026 |
| VGGVAGSFIFSC | 0.759 ± 0.15 |
| VGGVGGGRAWWR | 0.685 ± 0.055 |
| VGKGALHCLPDL | 0.713 ± 0.0015 |
| VGKYVVTKNGGC | 0.694 ± 0.043 |
| VGPLIGQVGIDT | 0.748 ± 0.014 |
| VGPLYFPWSLNF | 0.692 ± 0.053 |
| VGPVDPGDSDGL | 0.699 ± 0.0065 |
| VGQPWRLHFILR | 0.648 ± 0.0062 |
| VGQVGAGAVPVG | 0.677 ± 0.037 |
| VGRESVVGEQFV | 0.625 ± 0.025 |
| VGRVGVRDGVVG | 0.613 ± 0.032 |
